The results in this text go back to IntAct's records for PubMed 17396155.

B1: General receptor for phosphoinositides 1-associated scaffold protein (Rattus norvegicus (Rat)), Q8R4T5 (parent)
chain: MTLRRLRKLQQKEEATAAPDLAGRAPDSEAARAAPTPSGPPAAAAPPGAPGDELYAALEDYHPAELYRALAVSGGTLPRRKGSGFRWKNFTQSPEQQRKVLTLEKGDNQTFGFEIQTYGLHHREEQRVEMVTFVCRVHESSPAQLAGLTPGDTIASVNGLNVEGIRHREIVDIIKASGNVLRLETLYGTSIRKAELEARLQYLKQTLYEKWGEYRSLMVQEQRLVHGLVVKDPSIYDTLESVRSCLYGAGLLPGSLPFGPLLAAPGGARGGSRRAKGDTDDAVYHTCFFGGAEPQALPPPPPPARAPGPGSAETPASVLCPAPRATLSRSASVRCAGPGGGGGGGAPGALWTEAREQALCGAGLRKTKYRSFRRRLLKFIPGLNRSLEEEESQL

Variants of B1 are the subject of this test. Conditions: with grm5_rat Grm5, P31424.
Sequence of grm5_rat Grm5, P31424 (P31424 whole entry, looked up): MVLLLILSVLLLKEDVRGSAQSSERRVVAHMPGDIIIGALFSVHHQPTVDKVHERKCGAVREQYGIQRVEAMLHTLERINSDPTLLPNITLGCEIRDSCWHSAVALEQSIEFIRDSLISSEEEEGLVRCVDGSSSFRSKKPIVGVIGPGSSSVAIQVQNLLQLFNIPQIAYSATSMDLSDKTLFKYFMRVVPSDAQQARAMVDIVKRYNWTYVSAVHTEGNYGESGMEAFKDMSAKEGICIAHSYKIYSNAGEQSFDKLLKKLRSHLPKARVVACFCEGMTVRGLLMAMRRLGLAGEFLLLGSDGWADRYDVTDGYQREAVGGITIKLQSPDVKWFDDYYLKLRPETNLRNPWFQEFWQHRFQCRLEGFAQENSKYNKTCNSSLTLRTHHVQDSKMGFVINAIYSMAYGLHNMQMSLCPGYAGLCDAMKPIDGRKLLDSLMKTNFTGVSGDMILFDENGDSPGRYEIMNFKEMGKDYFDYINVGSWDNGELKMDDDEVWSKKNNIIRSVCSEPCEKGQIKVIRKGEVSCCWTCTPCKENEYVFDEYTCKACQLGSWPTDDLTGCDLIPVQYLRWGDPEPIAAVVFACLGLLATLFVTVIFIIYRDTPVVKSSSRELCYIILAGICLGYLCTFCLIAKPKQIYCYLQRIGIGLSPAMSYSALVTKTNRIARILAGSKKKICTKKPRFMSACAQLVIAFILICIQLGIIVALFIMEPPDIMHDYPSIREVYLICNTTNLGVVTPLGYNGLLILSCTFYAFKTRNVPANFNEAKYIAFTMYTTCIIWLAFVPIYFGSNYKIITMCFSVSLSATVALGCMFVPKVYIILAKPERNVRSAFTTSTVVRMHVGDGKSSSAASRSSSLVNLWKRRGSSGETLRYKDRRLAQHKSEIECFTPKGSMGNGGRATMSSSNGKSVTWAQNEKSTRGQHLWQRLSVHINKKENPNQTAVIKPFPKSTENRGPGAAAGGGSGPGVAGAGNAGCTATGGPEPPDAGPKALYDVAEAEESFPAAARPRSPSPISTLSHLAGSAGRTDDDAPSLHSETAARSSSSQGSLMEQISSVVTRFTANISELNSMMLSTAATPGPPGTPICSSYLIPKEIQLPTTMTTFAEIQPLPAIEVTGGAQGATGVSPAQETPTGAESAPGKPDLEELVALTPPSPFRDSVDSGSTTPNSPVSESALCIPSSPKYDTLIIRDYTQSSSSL
Consider E114K, for which the “effect of a mutation on the interaction” value is reported as “decreasing interaction”.
